Laboratory results as given in article PMC12320502.

target: HSPA5 tagged with Myc (pcDNA3.1) (UniProt P11021); experiment: Co-IP (IP: Flag, immunoblot: Myc), band intensity number under the Myc blot; conditions: parent: 1.0
Chain of UniProt P11021 (P11021 19-654): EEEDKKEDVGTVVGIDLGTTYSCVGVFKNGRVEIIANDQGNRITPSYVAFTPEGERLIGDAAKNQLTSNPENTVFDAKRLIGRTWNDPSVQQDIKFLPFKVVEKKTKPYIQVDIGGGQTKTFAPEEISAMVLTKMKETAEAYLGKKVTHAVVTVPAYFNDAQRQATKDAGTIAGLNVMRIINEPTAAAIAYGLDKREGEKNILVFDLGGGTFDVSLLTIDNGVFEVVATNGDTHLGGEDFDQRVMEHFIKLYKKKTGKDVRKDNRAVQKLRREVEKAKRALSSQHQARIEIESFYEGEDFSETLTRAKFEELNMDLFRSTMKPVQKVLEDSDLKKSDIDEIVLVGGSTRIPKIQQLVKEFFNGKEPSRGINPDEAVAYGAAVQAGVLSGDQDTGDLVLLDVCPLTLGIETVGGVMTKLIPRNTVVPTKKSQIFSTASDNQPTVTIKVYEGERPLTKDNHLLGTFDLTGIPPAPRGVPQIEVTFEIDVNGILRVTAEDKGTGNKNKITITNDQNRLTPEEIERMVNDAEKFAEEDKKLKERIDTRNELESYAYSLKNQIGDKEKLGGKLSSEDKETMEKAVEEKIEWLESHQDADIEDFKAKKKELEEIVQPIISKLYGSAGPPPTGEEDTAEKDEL

Q: How did the ratio to parent turn out when “SBSPON tagged with 3×Flag (pcDNA3.1-3×Flag-SBSPON) (from UniProt Q8IVN8) ASP88Vla” was run?
A: 0.7

Q: For “SBSPON tagged with 3×Flag (pcDNA3.1-3×Flag-SBSPON) (from UniProt Q8IVN8) ASP88Vla; LYS91Vla; GLU123Vla; HIS134Vla”, which ratio to parent is on record?
A: 0.8

Q: How did the ratio to parent turn out when “SBSPON tagged with 3×Flag (pcDNA3.1-3×Flag-SBSPON) (from UniProt Q8IVN8) GLU123Vla” was run?
A: 0.9

Q: “SBSPON tagged with 3×Flag (pcDNA3.1-3×Flag-SBSPON) (from UniProt Q8IVN8) HIS134Vla” was tested. Which ratio to parent did it give?
A: 0.8

Q: For “SBSPON tagged with 3×Flag (pcDNA3.1-3×Flag-SBSPON) (from UniProt Q8IVN8) LYS91Vla”, which ratio to parent is on record?
A: 0.9
